According to article PMC4072508, “Genome-Wide Prediction and Validation of Peptides That Bind Human Prosurvival Bcl-2 Proteins” (PLoS Computational Biology, 2014):

The binders below were run against Bcl-xL, Q07817 (assay: peptide SPOT array, c-Myc-tagged receptor at 1 uM or 100 nM, anti-c-Myc-Cy3).
Sequence of Bcl-xL, Q07817 (Q07817 1-209): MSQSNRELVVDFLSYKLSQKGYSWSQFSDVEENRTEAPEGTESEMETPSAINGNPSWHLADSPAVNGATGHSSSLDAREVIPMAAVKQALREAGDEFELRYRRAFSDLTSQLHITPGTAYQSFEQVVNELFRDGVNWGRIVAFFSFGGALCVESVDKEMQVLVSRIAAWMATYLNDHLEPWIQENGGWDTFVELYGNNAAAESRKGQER
In the case of NKQLRKETESDRKIALEAQKKAKVKI, the SPOT signal as a fraction of Bim BH3's signal on the same receptor and array is reported as 0.32.
With GFANHDVVEVLRNALQVVHLTLVRRK [INADL] the SPOT signal as a fraction of Bim BH3's signal on the same receptor and array was 0.18.
Work on NKQLRKETESLRKIALEAQKKAKVKI yielded an SPOT signal as a fraction of Bim BH3's signal on the same receptor and array of 0.5.
In the case of RYRHGAPAEQLRHLLDMLTTKWATLQ, the SPOT signal as a fraction of Bim BH3's signal on the same receptor and array is reported as 0.97.
In the case of NKDGKSVSNRDRRLSDNCGGKVLSIT [KIAA0430], the SPOT signal as a fraction of Bim BH3's signal on the same receptor and array is reported as 0.22.
RGRTRGWVQTDARMSRRTRGPVERAA [C6orf223] was tested, and the SPOT signal as a fraction of Bim BH3's signal on the same receptor and array was 0.91.
NEEGQQFALKDHRLGRTSFRNLKNKR [RIOK2] was tested, and the SPOT signal as a fraction of Bim BH3's signal on the same receptor and array was 1.05.
LARIRRRIKWLQDGSQSLFGRLHNDC [VWA3B] gave an SPOT signal as a fraction of Bim BH3's signal on the same receptor and array of 0.56.
Binder SQATGELADLIQQLSEKFGKNLNKDH [TRPC7] has an SPOT signal as a fraction of Bim BH3's signal on the same receptor and array of 0.03.
LVNIRKDTLRLVKCAEEVKSPGEEAS [RNF157] showed an SPOT signal as a fraction of Bim BH3's signal on the same receptor and array of 0.03.
SGEFREIGTVIDQIAETLWEQVFSKL [ATL2] was tested, and the SPOT signal as a fraction of Bim BH3's signal on the same receptor and array was 0.03.
Binder SSDVIAVCQSLRQMAEKCQQDPESCW [MMS19] has an SPOT signal as a fraction of Bim BH3's signal on the same receptor and array of 0.02.
AIKSQRMVQNLLSLARKICERVHRSP [ZBED4] showed an SPOT signal as a fraction of Bim BH3's signal on the same receptor and array of 0.26.
ARELEEISERLEEASGATSAQIEMNK [MYH13] showed an SPOT signal as a fraction of Bim BH3's signal on the same receptor and array of 0.02.
In the case of QAEADHLGKELQSVSAKLQAQVEENE [GOLGA6L1], the SPOT signal as a fraction of Bim BH3's signal on the same receptor and array is reported as 0.02.
YKGHREIARYDLEQGAQVNRRSAKGN was tested, and the SPOT signal as a fraction of Bim BH3's signal on the same receptor and array was 1.82.
Work on QEQLLTLASILREDGKVFDEKVYYTA [HEBP2] yielded an SPOT signal as a fraction of Bim BH3's signal on the same receptor and array of 0.03.
GHDATEDARTILELARYFLKHGPKKI [XXXX] gave an SPOT signal as a fraction of Bim BH3's signal on the same receptor and array of 0.11.
Work on LAELQQRSDQLLDMSSTFNKTTQNLA [VAMP5] yielded an SPOT signal as a fraction of Bim BH3's signal on the same receptor and array of 0.02.
For SAKLGKSSSLLTQTSEECNGILTEKM [ZNF396], the SPOT signal as a fraction of Bim BH3's signal on the same receptor and array was 0.02.
In the case of AHGVRDVSKELVGLAEHAATRLRFTK [TMEM151A], the SPOT signal as a fraction of Bim BH3's signal on the same receptor and array is reported as 0.1.
With VIKQRRLPDQDSKLADRIQLSGRYYL [RAPGEF2] the SPOT signal as a fraction of Bim BH3's signal on the same receptor and array was 1.24.
For ILRHKDIIDDLVKSGHKIMTACSEEE [DST], the SPOT signal as a fraction of Bim BH3's signal on the same receptor and array was 0.03.
Work on KPRMSNTSFVIQHFADKVEYKCEGFL [MYO5C] yielded an SPOT signal as a fraction of Bim BH3's signal on the same receptor and array of 0.04.
With HRTSNVLTLSDKRFANFSGGKITKDV [USP36] the SPOT signal as a fraction of Bim BH3's signal on the same receptor and array was 1.11.
GQISDEVAERLMTIAYESGVNLFDTA [KCNAB1] was tested, and the SPOT signal as a fraction of Bim BH3's signal on the same receptor and array was 0.02.
With FPDARDMVRYLGDFADTLGLRVQYNT [FOXRED2] the SPOT signal as a fraction of Bim BH3's signal on the same receptor and array was 0.03.
Work on NKQLRKETESLRKILLEAQKKAKVKI yielded an SPOT signal as a fraction of Bim BH3's signal on the same receptor and array of 0.31.
Binder YEHLRQFCLELNGLAVKLQSECHPDT [MOBKL3] has an SPOT signal as a fraction of Bim BH3's signal on the same receptor and array of 0.03.
ASKLKGAAVKLADFGLAIEVEGEQQA [CAMK2A] showed an SPOT signal as a fraction of Bim BH3's signal on the same receptor and array of 0.03.
Binder YIEYLKSSDRLDEAAQRLATVVNDER [XAB2] has an SPOT signal as a fraction of Bim BH3's signal on the same receptor and array of 0.03.
LGRTGQVCLFDKRGADQHALDQEQRD [ACAP3] gave an SPOT signal as a fraction of Bim BH3's signal on the same receptor and array of 0.08.
With AYTMERSARQIMHTAMKYNLGLDLRT [GLUD2] the SPOT signal as a fraction of Bim BH3's signal on the same receptor and array was 0.19.
SCMATVIHNPDKALGDQFYKEAIEHC [DPF3] was tested, and the SPOT signal as a fraction of Bim BH3's signal on the same receptor and array was 0.02.
Binder AHKARALARLLRQTALAAFSDFKRLQ [FAM43B] has an SPOT signal as a fraction of Bim BH3's signal on the same receptor and array of 0.65.
TFETQEDAQKILQEAEKLNYKDKKLN [BOLL] gave an SPOT signal as a fraction of Bim BH3's signal on the same receptor and array of 0.02.
Work on YGRLRPRARSLSKALTAINWLTKKFL [MYO15A] yielded an SPOT signal as a fraction of Bim BH3's signal on the same receptor and array of 0.94.
In the case of DLSSTFVSLALRKVLDWPLSARREKG [TTC31], the SPOT signal as a fraction of Bim BH3's signal on the same receptor and array is reported as 0.17.
In the case of DTIFHRAAVRLRDLGGAILRHARRQA [BRPF3], the SPOT signal as a fraction of Bim BH3's signal on the same receptor and array is reported as 0.9.
SRELEEISERLEEAGGATSAQIEMNK [MYH2] was tested, and the SPOT signal as a fraction of Bim BH3's signal on the same receptor and array was 0.02.
LQETTLVANQLREAASRLKWTTNTGP [MAN2B1] showed an SPOT signal as a fraction of Bim BH3's signal on the same receptor and array of 0.06.
NRQLANMVNNLKEISQEAREGTQGER [TRIM21] showed an SPOT signal as a fraction of Bim BH3's signal on the same receptor and array of 0.03.
In the case of EEQLEKLIKKLRKASEGLNSTLKDHI [CCDC76], the SPOT signal as a fraction of Bim BH3's signal on the same receptor and array is reported as 0.03.
In the case of IERMIHFGRELQAMSEQLRRDCGKNT [RANBP9], the SPOT signal as a fraction of Bim BH3's signal on the same receptor and array is reported as 0.06.
In the case of KTRADSVANKLGSFSKTLGIKLKKNM [OTUD7A], the SPOT signal as a fraction of Bim BH3's signal on the same receptor and array is reported as 0.87.
In the case of AERHKQEADDIVRVAKTANDTSTEAY [LAMC1], the SPOT signal as a fraction of Bim BH3's signal on the same receptor and array is reported as 0.02.
RLRHDEIITLLKNVGERVVLEVEYEL [GRIP2] was tested, and the SPOT signal as a fraction of Bim BH3's signal on the same receptor and array was 0.03.
In the case of YRDLPLAAVDLSTAGSQLLSNLDEDY [C15orf27], the SPOT signal as a fraction of Bim BH3's signal on the same receptor and array is reported as 0.02.
HNQLTTVPERLSNCSRSLKNLILKNN [TLR7] gave an SPOT signal as a fraction of Bim BH3's signal on the same receptor and array of 0.29.
For RYRHGAPAEQDRHLADMLTTKWATLQ, the SPOT signal as a fraction of Bim BH3's signal on the same receptor and array was 0.71.
LREVRESIRFLRQVGRDWVQRRREAL [CYP46A1] was tested, and the SPOT signal as a fraction of Bim BH3's signal on the same receptor and array was 0.8.
Binder YKGHREIARYLLEQGAQVNRRSAKGN has an SPOT signal as a fraction of Bim BH3's signal on the same receptor and array of 1.44.
Binder KSRLVQQSKADKELADELQERCQRPA [TRIM58] has an SPOT signal as a fraction of Bim BH3's signal on the same receptor and array of 0.05.
Binder LEKQNNSASDLHEISNEILRIIERTG [GPR112] has an SPOT signal as a fraction of Bim BH3's signal on the same receptor and array of 0.02.
Binder AKIIGNNVKKLQKFASTVKMWVFEET [GPD1L] has an SPOT signal as a fraction of Bim BH3's signal on the same receptor and array of 0.07.
